Laboratory results reported in patent publication US10137183B2, “Peptide compositions having 4 linked CTL epitopes and uses thereof” (TAIHO PHARMACEUTICAL CO., LTD., priority 2013, dated 2018).

Target: T1, Human 20S immunoproteasomes (Homo sapiens, UniProt P28062+P28065+P40306)
T1 construct: purchased R&D systems
Experiment: Peptide cleavage with human 20S immunoproteasomes (i20S), LC/MS-MS of fragments
Type: biochemical
Conditions: 66.7 μg/mL peptide, 37° C., 1, 2 or 4 hours
Procedure: Cleavage samples of peptides having 4 linked epitopes were prepared in the manner described below. Specifically, peptides having 4 linked epitopes were diluted to 66.7 μg/mL with a reaction buffer (20 mM HEPES-KOH, pH 7.8, 2 mM MgAc2, 2 mM dithiothreitol), and the resultant was dispensed into reaction tubes in amounts of 300 μL per tube. Human 20S immunoproteasomes (R&D systems) were added thereto in amounts of 2 μg per tube, the mixtures were agitated, and the resultants were then subjected to incubation with shaking at 37° C. for 1, 2, or 4 hours. […]
Subsequently, the obtained cleavage samples of the peptides having 4 linked epitopes were applied to the LC/MS-MS systems (Acquity UPLC system, Waters; Synapt G2 HDMS, Waters), so as to perform comprehensive analysis of the molecular weights of the peptide fragments. With the use of analytical software (MassLynx, ver. 4.1, SCN712, Waters), the samples were analyzed, and the peptide fragments were identified. The peptides having 4 linked epitopes were evaluated to be cleavable upon development of any of a peptide in which the epitope peptide was cleaved, a peptide comprising arginine residues added to the N terminus of the epitope peptide, or a peptide comprising an arginine dimer added to the N terminus of the epitope peptide, as a result of cleavage with immunoproteasomes.

## ILEQSGEWWK (listed as Homo sapiens) [PEP10]
  cleavage determining the C terminal amino acids of the CTL epitope peptide: required to be located at positions nearest to the C terminus

## ASLDSDPWV (listed as Homo sapiens) [PEP2]
  cleavage determining the C terminal amino acids of the CTL epitope peptide: required to be located at positions nearest to the C terminus
